Assay results: paper PMC6368300

Target: Pyruvate Kinase M2 (human) (UniProt P14618)
Test: SPR; Autolab SPR; PKM2 immobilised by NHS/EDC coupling; Histone H3 100 nM-1000 nM as analyte; 10 mM HEPES pH 7.4, 150 mM NaCl, 3 mM EDTA, 0.05% NP-40; 25°C; 1:1 Langmuir model, KD from the equilibrium equation; triplicate

Chain of UniProt P14618 (P14618 whole entry): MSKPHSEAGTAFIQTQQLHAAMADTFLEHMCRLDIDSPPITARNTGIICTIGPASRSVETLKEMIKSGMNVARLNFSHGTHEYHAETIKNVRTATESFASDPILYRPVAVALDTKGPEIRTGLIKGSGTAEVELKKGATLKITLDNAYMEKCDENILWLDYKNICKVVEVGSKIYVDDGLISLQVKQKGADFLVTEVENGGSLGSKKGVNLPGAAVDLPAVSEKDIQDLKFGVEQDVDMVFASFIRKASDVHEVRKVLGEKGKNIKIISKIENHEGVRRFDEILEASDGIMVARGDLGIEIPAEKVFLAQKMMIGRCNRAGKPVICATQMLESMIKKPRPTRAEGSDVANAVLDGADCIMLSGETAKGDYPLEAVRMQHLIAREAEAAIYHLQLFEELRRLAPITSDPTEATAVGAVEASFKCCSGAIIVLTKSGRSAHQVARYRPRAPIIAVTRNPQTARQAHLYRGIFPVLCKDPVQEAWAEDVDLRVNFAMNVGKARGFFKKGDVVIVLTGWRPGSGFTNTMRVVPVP

- Kd: 6.39 µM
Substance: Histone H3 (from UniProt P84233 1-136) (natural protein; other documents disagree on this pair)
